This experiment addresses Escherichia coli cytochrome bd-II type oxidase (hetero-trimer of AppC, AppB and AppX) (E. coli) (UniProt P26459). Kind of experiment: cryo-EM structure; bd-II in amphipol A8-35, 5.6 mg/mL, incubated with aurachin D; 20 mM MOPS, 20 mM NaCl, pH 7.0; C2 symmetry imposed; 3.0 Å.

In turn, “Escherichia coli cytochrome bd-II type oxidase (hetero-trimer of AppC, AppB and AppX) (from UniProt P26459 1-514; P26458 1-378; P24244 1-30) (complex)” registered a stoichiometry N of 2.

(Values after PMC8585947, “Structure of Escherichia coli cytochrome bd-II type oxidase with bound aurachin D” (Nature Communications, 2021).)
